The values that follow come from patent publication US20250304677A1 (VIB VZW, published 2025).

The target of assay [1] is T1, human folate receptor alpha (hFRα), recombinant protein (human, UniProt P15328 25-233).
T1 construct: Bought recombinant proteins (His-tagged, or biotinylated via Avi-tag, e.g. AcroBiosystems FO1-H82E2, F01-H52H1); also called hFOLR1; huFOLR1
Description: competition AlphaLISA against 2MFR67-Flag3-His6 on human FRα. On the procedure: Secondly, the variants were analysed for the capacity to compete with binding of family 3 VHH 2MFR67 to human FRα in a competition AlphaLISA, which is a homogeneous assay without wash steps. In here, human FRα biotinylated through an Avi-tag ^{∘}FO1-H82E2, AcroBiosystems) is captured on streptavidin coated Alpha Donor beads ^{∘}Perkin Elmer, Cat nr. 6760002), while the 2MFR67 is captured on anti-Flag antibody AlphaLISA acceptor beads ^{∘}Perkin Elmer, Cat nr. AL112C). Binding of 2MFR67 to the FRα leads to an energy transfer from one bead to the other, ultimately producing a fluorescent signal. To each well of white low binding 384-well microtitre plates ^{∘}F-bottom, Greiner Cat nr 781904), 5 μl of serial-diluted VHHs are mixed with 5 μl of 2.5 nM monovalent 2MFR67-Flag3-His6 and 5 μl of 15 nM biotinylated human FRα protein. After an incubation for 1 hour at room temperature, streptavidin coated Alpha Donor beads and anti-Flag AlphaLISA acceptor beads were added to a final concentration of 20 μg/mL each in a final volume of 25 μl for an incubation of 1 hour at room temperature in the dark. Interaction between beads was assessed after illumination at 680 nm and reading at 615 nm of on an Ensight instrument. Curve fitting is done in Graphpad Prism 9.0 using 4PL non-linear regression analysis.
A general note: In Alpha technology, singlet oxygen from a donor bead excites a nearby acceptor bead.

The target of assay [2] is T1, human folate receptor alpha (hFRα), …. Briefly: BLI, Avi-biotinylated FRα on streptavidin biosensors, VHH 100 nM. On the procedure:
(§1) The binding of humanized variants of 2HFO42 was assessed by kinetic binding analysis to mouse and human FRα protein, biotinylated via an Avi-tag, captured on streptavidin biosensors by biolayer interferometry ^{∘}BLI), essentially as described earlier. VHHs were analysed at 100 nM concentration, and off-rates were determined using fitting of 1:1 langmurian interaction. Dissociation constants were compared to 2HFO42^{∘}Q1E, Q5V, Q108L) ^{∘}P101500004) and 2MFR67 ^{∘}Q1E, Q5V, Q108L) ^{∘}P0150000), respectively.
On the technique in general: In BLI a coated tip is dipped into the sample, and binding shifts an interference pattern.

The target of assay [3] is T2, mouse folate receptor alpha (mFRα), recombinant protein (mouse, UniProt P35846 25-232).
T2 construct: Bought recombinant proteins (e.g. biotinylated, Acro Biosystems FO1-M82E9); also called mFOLR1; Ms FOLR1
Described as above. How it is done: as §1

Assay [4] has as its target T1, human folate receptor alpha (hFRα), …. Briefly: BLI off-rate screening, crude periplasmic extract, biotinylated human FRα on streptavidin biosensors. On the procedure:
(§2) Non-redundant clones were tested as crude periplasmatic extracts for binding analysis to human FRα and mouse FRα proteins captured on streptavidin biosensors in BLI. Variants P0150001 and P0150005 grown in the same 96-well plates were included as controls.

Assay [5] addresses T2, mouse folate receptor alpha (mFRα), …. Briefly: BLI off-rate screening, crude periplasmic extract, biotinylated mouse FRα on streptavidin biosensors. On the procedure: as §2
In assay [6] the target is T1, human folate receptor alpha (hFRα), …. Description: BLI off-rate analysis.
Assay [7] addresses T2, mouse folate receptor alpha (mFRα), …. Briefly: BLI off-rate analysis.
The target in assay [8] is T1, human folate receptor alpha (hFRα), …. Briefly: BLI. The method in brief:
(§3)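 Off-rates were measured by biolayer interferometry on biotinylated human and mouse folate receptor alpha immobilised on streptavidin biosensors. koff was calculated with a 1:1 binding model. Fold change for each variant is relative to its wild-type VHH. It is wild-type koff divided by variant koff when the variant's off-rate is better, and the negative of variant koff divided by wild-type koff when it is worse.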

For assay [9], the target named is T2, mouse folate receptor alpha (mFRα), …. Briefly: BLI. The method, boiled down:
as §3

Assay [10] has as its target T1, human folate receptor alpha (hFRα), …. Description: BLI, purified VHH. The method in brief: (§4)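 Off-rates to folate receptor alpha from human, mouse and cynomolgus were measured by biolayer interferometry. The VHH proteins tested were made with a flag3-His6 tag in TG-1 E. coli at 0.5 L scale and isolated from the periplasm on Ni Sepharose FastFlow columns.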
Assay [11] concerns the target T2, mouse folate receptor alpha (mFRα), …. Briefly: BLI, purified VHH. The method, boiled down: as §4
Assay [12] has as its target T3, cynomolgus folate receptor alpha, recombinant (cynomolgus, UniProt A0A2K5U044 25-233).
T3 construct: also called cyFOLR1; cynomolgus FRα
Description: BLI, purified VHH. The method, boiled down: as §4

Assay [13] concerns the target T1, human folate receptor alpha (hFRα), …. Briefly: BLI, Avi-biotinylated FRα. How it is done:
(§5) Purified VHHs ^{∘}100 nM) were analysed for binding to avi-tagged biotinylated FRα protein captured on streptavidin-biosensors via BLI.
(§6) Off-rates of purified variants were determined to human, mouse, and cynomolgus FRα in BLI. In addition, binding of the affinity optimised variants to cell-expressed human FRα on HeLa cells was determined by flow cytometry ^{∘}FIG. 10 B).

In assay [14] the target is T2, mouse folate receptor alpha (mFRα), …. Briefly: BLI, Avi-biotinylated FRα. On the procedure:
as §5, §6

Assay [15] has as its target T4, human folate receptor alpha expressed on cells (transfected HEK293T, HeLa, MCF7, MDA-MB-231) (human, UniProt P15328 25-234).
T4 construct: HEK293T transiently transfected with human FOLR1; also called native human FRα; cell-expressed human FOLR1
Briefly: flow cytometry on HeLa cells, anti-Flag detection. How it is done:
EC₅₀ values are found in Table 9. Detection of VHH cell binding was done through anti-Flag M2 mIgG1 followed by anti-mFc-PE in flow cytometry. Results are depicted as mean fluorescence intensity ^{∘}MFI).
as §6
(A flow cytometer gives signals particle by particle.)

Assay [16] addresses T2, mouse folate receptor alpha (mFRα), …. Briefly: BLI, VHH captured by anti-FLAG antibody on mouse Fc biosensors. The method in brief: (§7)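 VHHs were captured with an anti-FLAG tag antibody on mouse Fc biosensors. Binding to rhesus monkey, mouse and human folate receptor alpha was then measured by biolayer interferometry. kon, koff and the equilibrium dissociation constant (KD) were calculated using a 1:1 binding model.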

The target of assay [17] is T5, rhesus monkey folate receptor alpha, recombinant (rhesus monkey, UniProt F7BP60 25-233).
T5 construct: also called rhFolR1; rhesus macaque FRα
The description is as above. The method, boiled down: as §7

T2 sequence (P35846 25-232 limits assumed): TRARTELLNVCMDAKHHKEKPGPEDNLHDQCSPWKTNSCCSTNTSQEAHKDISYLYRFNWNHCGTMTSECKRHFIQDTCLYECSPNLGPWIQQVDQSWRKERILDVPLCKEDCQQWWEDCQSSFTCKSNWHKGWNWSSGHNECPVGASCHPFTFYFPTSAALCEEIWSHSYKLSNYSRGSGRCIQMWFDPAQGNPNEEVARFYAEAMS
T5 sequence (F7BP60 entry or part of it): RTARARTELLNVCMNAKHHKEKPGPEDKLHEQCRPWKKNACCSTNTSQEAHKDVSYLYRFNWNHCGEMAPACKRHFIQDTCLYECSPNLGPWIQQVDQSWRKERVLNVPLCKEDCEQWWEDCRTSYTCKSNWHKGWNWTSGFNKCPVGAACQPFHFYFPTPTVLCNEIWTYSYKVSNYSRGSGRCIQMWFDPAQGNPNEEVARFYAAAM
T1 sequence (P15328 25-233 limits assumed): as the sequence (F7BP60 entry or part of it) above, with T2I, R4W, K37R, P146A, Y171H counted along it
T4 sequence (P15328 25-234 limits assumed): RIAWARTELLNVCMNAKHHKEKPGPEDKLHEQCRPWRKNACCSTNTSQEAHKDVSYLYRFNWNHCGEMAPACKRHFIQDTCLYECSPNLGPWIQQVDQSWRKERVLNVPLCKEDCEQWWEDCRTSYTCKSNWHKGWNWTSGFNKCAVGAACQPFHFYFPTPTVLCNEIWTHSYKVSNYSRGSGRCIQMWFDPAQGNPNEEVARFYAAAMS
T3 sequence (A0A2K5U044 entry or part of it): as the sequence (F7BP60 entry or part of it) above

B1: P01500003: 2HF019(Q1E, Q5V, Q108L)-HIS6 (VHH)
VHH: EVQLVESGGGLVQPGGSLRVSCAASGFPFSTVYMSWVRQAPGKGLEWVSGINNDGGVIDYADSVKGRFTISRDNAKNTLYLQLNSLKPEDTALYFCARGRSFVATLSSSLRGQGTLVTVSS
notes: Entry includes the tag; also called 2HFO19 (P01500003); Nb19
With B1, the IC50 in assay [1] was found to be 7.55 nM. For the same molecule, the results for the koff in assay [2] and in assay [3] were 0.00499 s⁻¹ and 0.00052 s⁻¹, respectively.

B2: [V51R] (VHH)
VHH: EVQLVESGGGLVQPGGSLRLSCAASGSGFSGMIMGWYRQAPGKQRELVATRTSHGTTNYADSVKGRFTISRDNAKNTVYLQMNSLRPEDTAVYYCNAHFPGIYWGKGTLVTVSS
notes: library clone tested as crude periplasmic extract; also called P01500001[V51R]
As to B2, the binding result in [4] and in [5] was “binds” throughout.

B3: P01500079: P01500001[E1D]Flag3-His6-GS-NT (VHH)
VHH: DVQLVESGGGLVQPGGSLRLSCAASGSGFSGMIMGWYRQAPGKQRELVATVTSHGTTNYADSVKGRFTISRDNAKNTVYLQMNSLRPEDTAVYYCNAHFPGIYWGKGTLVTVSS
notes: Entry includes tags, linker and NT(8-13); also called humanised 2HFO42, P01500079
For B3, the koff in [6] turned out to be 0.0101 s⁻¹; in [7], 0.00224 s⁻¹.

B4: P01500006: 2HF042(Q1E, Q5V, A14P, V40A, L79Y, K83R, Q108L)-FLAG3-HIS6 (VHH)
VHH: EVQLVESGGGLVQPGGSLRLSCAASGSGFSGMIMGWYRQAPGKQRELVATVTSHGTTNYADSVKGRFTISRDNAKNTVYLQMNSLRPEDTAVYYCNAHFPGIYWGKGTLVTVSS
notes: Entry includes the tags; also called P0150006
Take B4: the off-rate (koff) in [8] was determined as 0.0132 s⁻¹; in assay [9], 0.00162 s⁻¹; in assay [10], 0.00947 s⁻¹; in assay [11], 0.00174 s⁻¹; in assay [12], 0.00158 s⁻¹; in [13], 0.00967 s⁻¹. Further, the koff worked out at 0.00189 s⁻¹ in assay [14]; 0.00249 s⁻¹ in [16]; 0.016 s⁻¹ in [17]; 0.012 s⁻¹ in assay [2]; 0.00252 s⁻¹ in assay [3]. The “nm (Fold wt)” value in assay [8] and in assay [9] was 1 throughout. Further, the EC50 in assay [15] is 32.4 nM. Besides, the MFI top in [15] came out at 35300 MFI. Moreover, the results for the dissociation constant (Kd) in assay [16] and in [17] were 6.77 nM and 27.7 nM, respectively. Besides, the on-rate (kon) in [16] was 367000 M⁻¹ s⁻¹; in assay [17] it was 577000 M⁻¹ s⁻¹.

B5: P01500077: P01500001[E1D, G28T, S30I, N73P]Flag3-His6-GS-NT (VHH)
VHH: DVQLVESGGGLVQPGGSLRLSCAASGSTFIGMIMGWYRQAPGKQRELVATVTSHGTTNYADSVKGRFTISRDPAKNTVYLQMNSLRPEDTAVYYCNAHFPGIYWGKGTLVTVSS
notes: Entry includes tags, linker and NT(8-13)
For B5, the values for the off-rate constant (koff) in assay [6] and in assay [7] were 0.00217 s⁻¹ and 0.000335 s⁻¹, respectively.

B6: P01500007: 2HF042(Q1E, Q5V, A14P, V40A, L79Y, K83R, K105Q, Q108L)-FLAG3-HIS6 (VHH)
VHH: EVQLVESGGGLVQPGGSLRLSCAASGSGFSGMIMGWYRQAPGKQRELVATVTSHGTTNYADSVKGRFTISRDNAKNTVYLQMNSLRPEDTAVYYCNAHFPGIYWGQGTLVTVSS
notes: Entry includes the tags
With B6, the koff in assay [2] is 0.0164 s⁻¹; in [3], 0.00292 s⁻¹.

B7: P01500075: P01500001[E1D, I33L, N73P]Flag3-His6-GS-NT (VHH)
VHH: DVQLVESGGGLVQPGGSLRLSCAASGSGFSGMLMGWYRQAPGKQRELVATVTSHGTTNYADSVKGRFTISRDPAKNTVYLQMNSLRPEDTAVYYCNAHFPGIYWGKGTLVTVSS
notes: as for B5
For the molecule B7, the koff in assay [6] came out at 0.00125 s⁻¹; in assay [7], 0.000125 s⁻¹.

B8: P01500073: P01500001[E1D, G28T, S30I]Flag3-His6-GS-NT (VHH)
VHH: DVQLVESGGGLVQPGGSLRLSCAASGSTFIGMIMGWYRQAPGKQRELVATVTSHGTTNYADSVKGRFTISRDNAKNTVYLQMNSLRPEDTAVYYCNAHFPGIYWGKGTLVTVSS
notes: as for B5
Consider B8, for which the koff in assay [6] worked out at 0.00346 s⁻¹; in [7], 0.000497 s⁻¹.

B9: P01500076: P01500001[E1D, G26E, G28T, S30I, I33L]Flag3-His6-GS-NT (VHH)
VHH: DVQLVESGGGLVQPGGSLRLSCAASESTFIGMLMGWYRQAPGKQRELVATVTSHGTTNYADSVKGRFTISRDNAKNTVYLQMNSLRPEDTAVYYCNAHFPGIYWGKGTLVTVSS
notes: as for B5
On to B9, for which the results for the koff in [6] and in [7] were 0.00112 s⁻¹ and 0.000164 s⁻¹, respectively.

B10: P01500074: P01500001[E1D, G26E, I33L]Flag3-His6-GS-NT (VHH)
VHH: DVQLVESGGGLVQPGGSLRLSCAASESGFSGMLMGWYRQAPGKQRELVATVTSHGTTNYADSVKGRFTISRDNAKNTVYLQMNSLRPEDTAVYYCNAHFPGIYWGKGTLVTVSS
notes: as for B5
As to B10, the koff in assay [6] was 0.00181 s⁻¹; in [7], 0.000328 s⁻¹.

B11: P01500072: P01500001[E1D, G26E, G28P, D72E, N73G]Flag3-His6-GS-NT (VHH)
VHH: DVQLVESGGGLVQPGGSLRLSCAASESPFSGMIMGWYRQAPGKQRELVATVTSHGTTNYADSVKGRFTISREGAKNTVYLQMNSLRPEDTAVYYCNAHFPGIYWGKGTLVTVSS
notes: as for B5
Consider B11, for which the koff in assay [6] turned out to be 0.000307 s⁻¹; in assay [7], 2.1e-05 s⁻¹.

B12: P01500070: P01500001[E1D, I33F, N73P]Flag3-His6-GS-NT (VHH)
VHH: DVQLVESGGGLVQPGGSLRLSCAASGSGFSGMFMGWYRQAPGKQRELVATVTSHGTTNYADSVKGRFTISRDPAKNTVYLQMNSLRPEDTAVYYCNAHFPGIYWGKGTLVTVSS
notes: Entry includes tags, linker and NT(8-13); produced in HEK-F cells
B12: the koff in assay [6] was determined as 0.00151 s⁻¹; in assay [7], 0.000192 s⁻¹.

B13: P01500071: P01500001[E1D, G26E, I33F]Flag3-His6-GS-NT (VHH)
VHH: DVQLVESGGGLVQPGGSLRLSCAASESGFSGMFMGWYRQAPGKQRELVATVTSHGTTNYADSVKGRFTISRDNAKNTVYLQMNSLRPEDTAVYYCNAHFPGIYWGKGTLVTVSS
notes: as for B5
Take B13: the koff is 0.00266 s⁻¹ in assay [6] and 0.000326 s⁻¹ in assay [7].

One may read the IC50 as the concentration needed to halve the response being measured. Broadly, the koff is a measure of how fast the partners let go of each other. Usually EC50 stands for the concentration that produces a half-maximal response. In general, Kd refers to the equilibrium constant for the complex coming apart. For orientation: kon means the second-order rate constant of association.
